Measured values published in patent US20220177587A1, “METHODS AND USES OF VARIANT CD80 FUSION PROTEINS AND RELATED CONSTRUCTS” (Alpine Immune Sciences, Inc., priority 2018, published 2022).

Columns and labels:
huPD-L1 = huPD-L1 (Homo sapiens, UniProt Q9NZQ7); assay: Flow binding to CHO cells stably expressing PD-L1; parameters: huCTLA4 and huPD-L1, full-length mammalian surface expression constructs were generated; expressed in transfected cells; host or cells: CHO cells, lentiviral transduction, sorted to >98% purity; settings: for PD-L1 MFI at 33.3 nM: CHO cells stably expressing PD-L1
Sequence of huPD-L1 (Q9NZQ7 19-290): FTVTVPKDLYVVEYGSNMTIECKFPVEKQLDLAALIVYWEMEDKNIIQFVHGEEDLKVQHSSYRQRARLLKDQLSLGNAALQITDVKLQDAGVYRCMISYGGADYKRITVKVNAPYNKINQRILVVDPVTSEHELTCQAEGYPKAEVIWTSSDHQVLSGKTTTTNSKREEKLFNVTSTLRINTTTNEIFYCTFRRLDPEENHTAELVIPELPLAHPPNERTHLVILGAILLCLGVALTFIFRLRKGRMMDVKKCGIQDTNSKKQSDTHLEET
In short: (§1)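 Flow cytometry on transfected CHO cells or CD28+ Jurkat/IL2 reporter cells, blocked 20 min in PBS/1% BSA/0.1% azide. Fusion protein 45 min on ice; PE anti-human Fc 1:150, 30 min on ice; fixed in 2% formaldehyde. Read-out PE MFI, EC50 calculated.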

CD28 [1] = biological target: T1, CD28 (Homo sapiens, UniProt P10747); assay: Jurkat/IL2 + CHO/OKT3 +/- PD-L1 reporter assay: PD-L1-dependent CD28 costimulation; type: cell-based; parameters: host or cells: Jurkat cells expressing an IL-2-luciferase reporter; settings: Jurkat/IL2 + CHO/OKT3/PD-L1; for Fold Increase over WT CD80-IgV-Fe / Relative Luciferase Units (RLU), CD80 Cone 5.0 nM: 5.0 nM
In short: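 Jurkat reporter cells (100,000/well) preincubated 15 min at room temperature with test protein, then cocultured 5 h at 37 °C with CHO aAPCs bearing anti-CD3 scFv (OKT3) with or without PD-L1. Luciferase luminescence (RLU) read after lysis-substrate addition.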

CD28 [2] = biological target: T1, CD28; assay: Flow binding to Jurkat/IL2 reporter cells (CD28); parameters: host or cells: Jurkat cells expressing an IL-2-luciferase reporter; settings: for CD28 MFI at 33.3 nM: Jurkats (CD28)
In short: as §1

huCTLA4 = huCTLA4 (Homo sapiens, UniProt P16410); assay: Flow binding to CHO cells stably expressing CTLA4; parameters: huCTLA4 and huPD-L1, full-length mammalian surface expression constructs were generated; expressed in transfected cells; host or cells: CHO cells, lentiviral transduction, sorted to >98% purity; settings: for CTLA4 MFI at 33.3 nM: CHO cells stably expressing CTLA4
Sequence of huCTLA4 (P16410 36-223): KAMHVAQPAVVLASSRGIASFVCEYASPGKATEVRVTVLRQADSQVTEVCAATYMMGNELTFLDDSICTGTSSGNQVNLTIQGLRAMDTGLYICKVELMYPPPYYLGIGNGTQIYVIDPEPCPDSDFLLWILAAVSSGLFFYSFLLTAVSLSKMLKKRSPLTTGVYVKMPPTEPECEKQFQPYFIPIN
In short: as §1

[3] = Table E19, MFI at 33.3 nM relative to WT CD80 ECD-Fc (Abcam)
[4] = Table E19, ratio of MFI at 33.3 nM
[5] = Table E11, 33.3 nM, listed as WT CD80 ECD-Fc = 1.0

Molecule | PD-L1 MFI at 33.3 nM (huPD-L1; Table E19, 33.3 nM) | PD-L1 Fold change to WT CD80 (huPD-L1; [3]) | Ratio of PDL1:CD28 (huPD-L1; [4]) | Fold Increase over WT CD80-IgV-Fe (CD28 [1]; Table E21) | Relative Luciferase Units (RLU), CD80 Conc 5.0 nM (CD28 [1]; Table E21) | CD28 MFI at 33.3 nM (CD28 [2]; Table E19, 33.3 nM) | CD28 Fold change to WT CD80 (CD28 [2]; [3]) | CTLA4 MFI at 33.3 nM (huCTLA4; Table E19, 33.3 nM) | CTLA4 Fold change to WT CD80 (huCTLA4; [3]) | PD-L1 Fold change to WT CD80 (huPD-L1; [5]) | PD-L1 MFI at 33.3 nM (huPD-L1; Table E11, 33.3 nM) | Ratio of PDL1:CD28 (huPD-L1; Table E11, MFI at 33.3 nM) | Fold Increase over WT CD80-IgV-Fe (CD28 [1]; Table E13) | Relative Luciferase Units (RLU), CD80 Cone 5.0 nM (CD28 [1]; Table E13) | CD28 Fold change to WT CD80 (CD28 [2]; [5]) | CD28 MFI at 33.3 nM (CD28 [2]; Table E11, 33.3 nM) | CTLA4 Fold change to WT CD80 (huCTLA4; [5]) | CTLA4 MFI at 33.3 nM (huCTLA4; Table E11, 33.3 nM)
M47L (protein) VIHVTKEVKEVATLSCGHNVSVEELAQTRIYWQKEKKMVLTMMSGDLNIWPEYKNRTIFDITNNLSIVILALRPSDEGTYECVVLKYEKDAFKREHLAEVTLSVKAD | 1895 | 14.8 fold | 6.1 | 4.6 fold | 530 RLU | 309 | 0.4 fold | 30774 | 0.8 fold | – | – | – | – | – | – | – | – | –
D46V/L85Q (protein) VIHVTKEVKEVATLSCGHNVSVEELAQTRIYWQKEKKMVLTMMSGVMNIWPEYKNRTIFDITNNLSIVILALRPSDEGTYECVVQKYEKDAFKREHLAEVTLSVKAD | 2197 | 17.2 fold | 16.8 | 3.0 fold | 342 RLU | 131 | 0.2 fold | 41896 | 1.0 fold | – | – | – | – | – | – | – | – | –
D46V/V68M (protein) VIHVTKEVKEVATLSCGHNVSVEELAQTRIYWQKEKKMVLTMMSGVMNIWPEYKNRTIFDITNNLSIMILALRPSDEGTYECVVLKYEKDAFKREHLAEVTLSVKAD | 2271 | 17.7 fold | 4.1 | 2.5 fold | 292 RLU | 556 | 0.8 fold | 5334 | 0.1 fold | – | – | – | – | – | – | – | – | –
E35D/V68M/L85Q (protein) VIHVTKEVKEVATLSCGHNVSVEELAQTRIYWQKDKKMVLTMMSGDMNIWPEYKNRTIFDITNNLSIMILALRPSDEGTYECVVQKYEKDAFKREHLAEVTLSVKAD | 5971 | 46.6 fold | 78.4 | 4.4 fold | 511 RLU | 76.2 | 0.1 fold | 42761 | 1.1 fold | – | – | – | – | – | – | – | – | –
D46V/M47L/V68M (protein) VIHVTKEVKEVATLSCGHNVSVEELAQTRIYWQKEKKMVLTMMSGVLNIWPEYKNRTIFDITNNLSIMILALRPSDEGTYECVVLKYEKDAFKREHLAEVTLSVKAD | 28020 | 218.9 fold | 12.8 | 6.3 fold | 724 RLU | 2183 | 3.1 fold | 34688 | 0.9 fold | – | – | – | – | – | – | – | – | –
E35D/M47L/V68M (protein) VIHVTKEVKEVATLSCGHNVSVEELAQTRIYWQKDKKMVLTMMSGDLNIWPEYKNRTIFDITNNLSIMILALRPSDEGTYECVVLKYEKDAFKREHLAEVTLSVKAD | 27896 | 217.9 fold | 22.4 | 6.5 fold | 749 RLU | 1243 | 1.8 fold | 28603 | 0.7 fold | – | – | – | – | – | – | – | – | –
E24D/E35D/M47L/V68M/E95V/L97Q (protein, UniProt P33681 35-288, looked up, variant E24D E35D M47L V68M E95V L97Q) T-lymphocyte activation …: VIHVTKEVKEVATLSCGHNVSVEDLAQTRIYWQKDKKMVLTMMSGDLNIWPEYKNRTIFDITNNLSIMILALRPSDEGTYECVVLKYEKDAFKRVHQAEVTLSVKADFPTPSISDFEIPTSNIRRIICSTSGGFPEPHLSWLENGEELNAINTTVSQDPETELYAVSSKLDFNMTTNHSFMCLIKYGHLRVNQTFNWNTTKQEHFPDNLLPSWAITLISVNGIFVICCLTYCFAPRCRERRRNERLRRESVRPV | – | – | – | – | – | – | – | – | – | 362.1 | 18649 | 1268.6 | 2.7 | 1087 RLU | 0.5 | 15 | 8.8 | 15505
T13R/Q33R/E35D/M47L/V68M (protein, CD80 v381 ECD) VIHVTKEVKEVARLSCGHNVSVEELAQTRIYWRKDKKMVLTMMSGDLNIWPEYKNRTIFDITNNLSIMILALRPSDEGTYECVVLKYEKDAFKREHLAEVTLSVKADFPTPSISDFETPTSNIRRIICSTSGGFPEPHLSWLENGEELNAINTTVSQDPETELYAVSSKLDFNMTTNHSFMCLIKYGHLRVNQTFNWNTTKQEHFPDN | – | – | – | – | – | – | – | – | – | 285.0 | 14680 | 1041.1 | 1.0 | 399 RLU | 0.4 | 14.1 | 11.8 | 20738
T13R/Q33R/E35D/M47L/V68M/L85M (protein, CD80 v382 ECD) VIHVTKEVKEVARLSCGHNVSVEELAQTRIYWRKDKKMVLTMMSGDLNIWPEYKNRTIFDITNNLSIMILALRPSDEGTYECVVMKYEKDAFKREHLAEVTLSVKADFPTPSISDFETPTSNIRRIICSTSGGFPEPHLSWLENGEELNAINTTVSQDPETELYAVSSKLDFNMTTNHSFMCLIKYGHLRVNQTFNWNTTKQEHFPDN | – | – | – | – | – | – | – | – | – | 367.7 | 18938 | 169.1 | 2.9 | 1160 RLU | 3.6 | 112 | 7.7 | 13438
